Consider 57 substances from patent US10047131B2, “Peptides and combination of peptides for use in immunotherapy against ovarian cancer and other cancers” (immatics biotechnologies GmbH, priority 2015, dated 2018).

This assay deals with HLA-A*02:01 (Homo sapiens, UniProt P04439, D140Y/D185E/D98H/E176V/E277Q/G131W/G231S/I119V/I121R/I166T/I218V/L300P/L318F/N151K/N90K/P208A/P217A/Q86G/Q94H/R138H/R169H/T345S). Briefly: MHC binding assay (UV-ligand exchange, ELISA of exchange yield). The conditions noted are these: binding to HLA-A*02:01, UV-ligand exchange. The text has this: Candidate peptides for T cell based therapies according to the present invention were further tested for their MHC binding capacity (affinity). The individual peptide-MHC complexes were produced by UV-ligand exchange, where a UV-sensitive peptide is cleaved upon UV-irradiation, and exchanged with the peptide of interest as analyzed. Only peptide candidates that can effectively bind and stabilize the peptide-receptive MHC molecules prevent dissociation of the MHC complexes. To determine the yield of the exchange reaction, an ELISA was performed based on the detection of the light chain (p2m) of stabilized MHC complexes. The assay was performed as generally described in Rodenko et al. (Rodenko et al., 2006).
96 well MAXISorp plates (NUNC) were coated over night with 2 μg/ml streptavidin in PBS at room temperature, washed 4× and blocked for 1 h at 37° C. in 2% BSA containing blocking buffer. […] Peptide-MHC monomers of the UV-exchange reaction were diluted 100 fold in blocking buffer. Samples were incubated for 1h at 37° C., washed four times, incubated with 2 μg/ml HRP conjugated anti-β2m for 1h at 37° C., washed again and detected with TMB solution that is stopped with […]. Absorption was measured at 450 nm. Candidate peptides that show a high exchange yield (preferably higher than 50%, most preferred higher than 75%) are generally preferred for a generation and production of antibodies or fragments thereof, and/or T cell receptors or fragments thereof, as they show sufficient avidity to the MHC molecules and prevent dissociation of the MHC complexes.
(In general: ELISA stands for enzyme-linked immunosorbent assay.)
For the substance “1 (SLMEPPAVLLL; listed as Homo sapiens) [compound 1]”, the “Peptide exchange (MHC class I binding score, peptide exchange yield)” value (shortened to “Peptide exchange”) is given as ““+++” (≥50 = +++)”.

Consider “2 (SLLEADPFL; listed as Homo sapiens) [compound 2]”, for which the “Peptide exchange” value was ““+++” (≥50 = +++)”.

Turning to “3 (SLASKLTTL; listed as Homo sapiens) [compound 3]”, the “Peptide exchange” value is listed as ““++++” (≥75% = ++++)”.

Take “4 (GIMEHITKI; listed as Homo sapiens) [compound 4]”: the “Peptide exchange” value is given as ““++++” (≥75% = ++++)”.

As to “5 (HLTEVYPEL; listed as Homo sapiens) [compound 5]”, the “Peptide exchange” value is ““+++” (≥50 = +++)”.

“6 (VLVSDGVHSV; listed as Homo sapiens) [compound 6]”: the “Peptide exchange” value is listed as ““+++” (≥50 = +++)”.

Consider “7 (SLVGLLLYL; listed as Homo sapiens) [compound 7]”, for which the “Peptide exchange” value is given as ““++++” (≥75% = ++++)”.

Regarding “8 (FTLGNVVGMYL; listed as Homo sapiens) [compound 8]”, the “Peptide exchange” value is reported as ““++++” (≥75% = ++++)”.

Take “9 (GAAKDLPGV; listed as Homo sapiens) [compound 9]”: the “Peptide exchange” value was ““++” (≥20% = ++)”.

Consider “10 (FLATFPLAAV; listed as Homo sapiens) [compound 10]”, for which the “Peptide exchange” value is on record as ““++++” (≥75% = ++++)”.

As for “11 (KIFEMLEGV; listed as Homo sapiens) [compound 11]”, the “Peptide exchange” value was ““+++” (≥50 = +++)”.

As to “12 (SLWPDPMEV; listed as Homo sapiens) [compound 12]”, the “Peptide exchange” value is ““+++” (≥50 = +++)”.

Consider “13 (YLMDESLNL; listed as Homo sapiens) [compound 13]”, for which the “Peptide exchange” value is ““+++” (≥50 = +++)”.

As for “14 (AAYGGLNEKSFV; listed as Homo sapiens) [compound 14]”, the “Peptide exchange” value is ““+++” (≥50 = +++)”.

Take “15 (VLLTFKIFL; listed as Homo sapiens) [compound 15]”: the “Peptide exchange” value is reported as ““++” (≥20% = ++)”.

Turning to “16 (VLFQGQASL; listed as Homo sapiens) [compound 16]”, the “Peptide exchange” value is recorded as ““+++” (≥50 = +++)”.

Take “17 (GLLPGDRLVSV; listed as Homo sapiens) [compound 17]”: the “Peptide exchange” value is reported as ““+++” (≥50 = +++)”.

Consider “18 (YLVAKLVEV; listed as Homo sapiens) [compound 18]”, for which the “Peptide exchange” value was ““++” (≥20% = ++)”.

On to “19 (FMVDNEAIYDI; listed as Homo sapiens) [compound 19]”, for which the “Peptide exchange” value is given as ““++++” (≥75% = ++++)”.

For “20 (RMIEYFIDV; listed as Homo sapiens) [compound 20]”, the “Peptide exchange” value is recorded as ““+++” (≥50 = +++)”.

In the case of “21 (VLDELDMEL; listed as Homo sapiens) [compound 21]”, the “Peptide exchange” value is on record as ““++” (≥20% = ++)”.

In the case of “22 (IMEENPGIFAV; listed as Homo sapiens) [compound 22]”, the “Peptide exchange” value is ““+++” (≥50 = +++)”.

In the case of “23 (VLLDDIFAQL; listed as Homo sapiens) [compound 23]”, the “Peptide exchange” value is listed as ““+++” (≥50 = +++)”.

In the case of “24 (SLSDGLEEV; listed as Homo sapiens) [compound 24]”, the “Peptide exchange” value is reported as ““++” (≥20% = ++)”.

On to “25 (FLPDEPYIKV; listed as Homo sapiens) [compound 25]”, for which the “Peptide exchange” value is reported as ““+++” (≥50 = +++)”.

“26 (ALLELAEEL; listed as Homo sapiens) [compound 26]”: the “Peptide exchange” value was ““+++” (≥50 = +++)”.

In the case of “27 (ILADIVISA; listed as Homo sapiens) [compound 27]”, the “Peptide exchange” value is ““+++” (≥50 = +++)”.

For the substance “28 (QLLDETSAITL; listed as Homo sapiens) [compound 28]”, the “Peptide exchange” value is given as ““+++” (≥50 = +++)”.

As to “29 (KMLGIPISNILMV; listed as Homo sapiens) [compound 29]”, the “Peptide exchange” value is on record as ““+++” (≥50 = +++)”.

As for “30 (LILDWVPYI; listed as Homo sapiens) [compound 30]”, the “Peptide exchange” value is on record as ““+++” (≥50 = +++)”.

For “31 (YLAPELFVNV; listed as Homo sapiens) [compound 31]”, the “Peptide exchange” value is given as ““++” (≥20% = ++)”.

As for “32 (KLDDLTQDLTV; listed as Homo sapiens) [compound 32]”, the “Peptide exchange” value is ““++” (≥20% = ++)”.

Consider “33 (VLLSLLEKV; listed as Homo sapiens) [compound 33]”, for which the “Peptide exchange” value is on record as ““++” (≥20% = ++)”.

Consider “34 (ILVEADSLWVV; listed as Homo sapiens) [compound 34]”, for which the “Peptide exchange” value is reported as ““+++” (≥50 = +++)”.

For “35 (KINDTIYEV; listed as Homo sapiens) [compound 35]”, the “Peptide exchange” value is given as ““+++” (≥50 = +++)”.

“36 (YVLEDLEVTV; listed as Homo sapiens) [compound 36]”: the “Peptide exchange” value is listed as ““++” (≥20% = ++)”.

Turning to “38 (FLLEDDIHVS; listed as Homo sapiens) [compound 38]”, the “Peptide exchange” value is ““+++” (≥50 = +++)”.

“39 (SVAPNLPAV; listed as Homo sapiens) [compound 39]”: the “Peptide exchange” value is recorded as ““+++” (≥50 = +++)”.

As for “40 (TLLVKVFSV; listed as Homo sapiens) [compound 40]”, the “Peptide exchange” value is on record as ““+++” (≥50 = +++)”.

On to “41 (SLMPHIPGL; listed as Homo sapiens) [compound 41]”, for which the “Peptide exchange” value is ““+++” (≥50 = +++)”.

For “42 (VLLQKIVSA; listed as Homo sapiens) [compound 42]”, the “Peptide exchange” value is reported as ““+++” (≥50 = +++)”.

On to “43 (VLSSLEINI; listed as Homo sapiens) [compound 43]”, for which the “Peptide exchange” value is ““++” (≥20% = ++)”.

In the case of “44 (ILDPISSGFLL; listed as Homo sapiens) [compound 44]”, the “Peptide exchange” value is listed as ““++” (≥20% = ++)”.

For the substance “45 (SLWQDIPDV; listed as Homo sapiens) [compound 45]”, the “Peptide exchange” value is given as ““+++” (≥50 = +++)”.

For the substance “46 (ILTEENIHL; listed as Homo sapiens) [compound 46]”, the “Peptide exchange” value is listed as ““+++” (≥50 = +++)”.

On to “47 (ILLSVPLLVV; listed as Homo sapiens) [compound 47]”, for which the “Peptide exchange” value was ““++” (≥20% = ++)”.

Turning to “48 (ALAELYEDEV; listed as Homo sapiens) [compound 48]”, the “Peptide exchange” value is ““+++” (≥50 = +++)”.

For the substance “49 (YLPAVFEEV; listed as Homo sapiens) [compound 49]”, the “Peptide exchange” value is on record as ““+++” (≥50 = +++)”.

Consider “50 (SLSELEALM; listed as Homo sapiens) [compound 50]”, for which the “Peptide exchange” value is recorded as ““+++” (≥50 = +++)”.

For “51 (LLPDLEFYV; listed as Homo sapiens) [compound 51]”, the “Peptide exchange” value is reported as ““++++” (≥75% = ++++)”.

As for “52 (FLLAHGLGFLL; listed as Homo sapiens) [compound 52]”, the “Peptide exchange” value is given as ““++++” (≥75% = ++++)”.

Turning to “53 (KMIETDILQKV; listed as Homo sapiens) [compound 53]”, the “Peptide exchange” value is ““++++” (≥75% = ++++)”.

For “54 (SLLEQGKEPWMV; listed as Homo sapiens) [compound 54]”, the “Peptide exchange” value is given as ““+++” (≥50 = +++)”.

Regarding “55 (SLLDLETLSL; listed as Homo sapiens) [compound 55]”, the “Peptide exchange” value is on record as ““++++” (≥75% = ++++)”.

Take “56 (KLYEGIPVLL; listed as Homo sapiens) [compound 56]”: the “Peptide exchange” value is recorded as ““++++” (≥75% = ++++)”.

With “57 (TLAELQPPVQL; listed as Homo sapiens) [compound 57]”, the “Peptide exchange” value is recorded as ““+++” (≥50 = +++)”.

Consider “59 (IMEDIILTL; listed as Homo sapiens) [compound 59]”, for which the “Peptide exchange” value is ““+++” (≥50 = +++)”.
